Assay results from paper PMC8697598 (ACS Omega, 2021).

T1: AfGcHK (Anaeromyxobacter sp. Fw109-5, UniProt A7HD43)
T1 construct: gene gchK; full-length, C-terminal His6 tag kept, pET-21c in E. coli BL21(DE3); reconstituted with heme or cobalt protoporphyrin IX
T1 sequence (A7HD43 1-382): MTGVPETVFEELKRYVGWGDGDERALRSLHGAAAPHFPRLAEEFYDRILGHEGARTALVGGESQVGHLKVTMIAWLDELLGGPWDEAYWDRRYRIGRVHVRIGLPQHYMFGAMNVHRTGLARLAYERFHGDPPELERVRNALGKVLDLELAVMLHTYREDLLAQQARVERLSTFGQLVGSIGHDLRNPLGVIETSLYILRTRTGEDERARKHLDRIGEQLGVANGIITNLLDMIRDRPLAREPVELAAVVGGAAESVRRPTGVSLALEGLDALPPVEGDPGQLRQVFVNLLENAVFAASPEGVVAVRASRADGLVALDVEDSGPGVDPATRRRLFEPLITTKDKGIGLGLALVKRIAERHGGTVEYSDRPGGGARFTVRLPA


Key:
[1] = molecular target: T1, AfGcHK; test: autophosphorylation, Phos-tag SDS-PAGE; type: biochemical; settings: Fe(III) and Fe(II)-O2 heme forms of Fe-AfGcHK; 1 mM ATP, 5 mM MgCl2, pH 8.0, 25 °C
[2] = molecular target: the molecule itself; test: SEC; analytical gel filtration, Superdex 200 Increase 10/300 GL, 50 mM Tris-HCl pH 8.0, 100 mM NaCl; molecular weight estimated from elution volumes of standard proteins

Molecule | autophosphorylation, Phos-tag SDS-PAGE [1] | stoichiometry N [2]
Nc1ncnc2c1ncn2[C@@H]1O[C@H](COP(=O)(O)OP(=O)(O)OP(=O)(O)O)[C@@H](O)[C@H]1O [ATP] | the Fe(III), and Fe(II)-O2 complexes of Fe-AfGcHK displayed autophosphorylation activity | 
Fe-AfGcHK, globin-coupled histidine kinase from Anaeromyxobacter sp. Fw109-5 reconstituted with heme (iron protoporphyrin IX) (enzyme, UniProt A7HD43 1-382, looked up, AfGcHK, globin-coupled oxygen sensor histidine kinase from Anaeromyxobacter sp; Fw109-5; full-length protein with N-terminal globin sensor domain and C-terminal histidine kinase domain; predicted mass 43.0 kDa with the C-terminal His6 tag; Holds one equivalent of heme (iron protoporphyrin IX) per subunit; As purified, partially pre-autophosphorylated (about 10%, at His183); source: E. coli …) MTGVPETVFEELKRYVGWGDGDERALRSLHGAAAPHFPRLAEEFYDRILGHEGARTALVGGESQVGHLKVTMIAWLDELLGGPWDEAYWDRRYRIGRVHVRIGLPQHYMFGAMNVHRTGLARLAYERFHGDPPELERVRNALGKVLDLELAVMLHTYREDLLAQQARVERLSTFGQLVGSIGHDLRNPLGVIETSLYILRTRTGEDERARKHLDRIGEQLGVANGIITNLLDMIRDRPLAREPVELAAVVGGAAESVRRPTGVSLALEGLDALPPVEGDPGQLRQVFVNLLENAVFAASPEGVVAVRASRADGLVALDVEDSGPGVDPATRRRLFEPLITTKDKGIGLGLALVKRIAERHGGTVEYSDRPGGGARFTVRLPA |  | 2
Co-AfGcHK, cobalt-substituted AfGcHK (globin-coupled histidine kinase from Anaeromyxobacter sp. Fw109-5 reconstituted with cobalt protoporphyrin IX) (enzyme, UniProt A7HD43 1-382, looked up, AfGcHK, globin-coupled oxygen sensor histidine kinase from Anaeromyxobacter sp; Fw109-5; full-length protein with N-terminal globin sensor domain and C-terminal histidine kinase domain; predicted mass 43.0 kDa with the C-terminal His6 tag; Same polypeptide and construct as m1; source: E. coli BL21(DE3), pET-21c; cobalt(III) protoporphyrin IX chloride added to the crude extract; purified (HisTrap …)) MTGVPETVFEELKRYVGWGDGDERALRSLHGAAAPHFPRLAEEFYDRILGHEGARTALVGGESQVGHLKVTMIAWLDELLGGPWDEAYWDRRYRIGRVHVRIGLPQHYMFGAMNVHRTGLARLAYERFHGDPPELERVRNALGKVLDLELAVMLHTYREDLLAQQARVERLSTFGQLVGSIGHDLRNPLGVIETSLYILRTRTGEDERARKHLDRIGEQLGVANGIITNLLDMIRDRPLAREPVELAAVVGGAAESVRRPTGVSLALEGLDALPPVEGDPGQLRQVFVNLLENAVFAASPEGVVAVRASRADGLVALDVEDSGPGVDPATRRRLFEPLITTKDKGIGLGLALVKRIAERHGGTVEYSDRPGGGARFTVRLPA |  | 2
